This data set deals with RtrC (Caulobacter crescentus (NA1000?)). Put plainly: EMSA. As to conditions: 200 mM NaCl, 50 ng/ul poly(dI-dC), EMSA: 32.5 mM Tris pH 8 (at 4 C), 200 mM NaCl (chases: 30 mM Tris, 150 mM NaCl), 1 mM EDTA, 30% glycerol, 1 mM DTT, 10 ug/ml BSA, 20 C …. A general note: In EMSA bound probe runs differently from free probe, usually more slowly.

A word on the Kd: it is the concentration at which binding is half-saturated. High values mean weaker binding, low ones tighter binding.

hfiA promoter probe, labeled came in with a Kd of 0.045 µM.

The record behind these values is paper PMC9648850.
